Ends that are not written are not given here.
Columns and labels:
[1] = molecular target: HLA-A2.1 (HLA-A*0201) with β2-microglobulin (human); assay: peptide-binding assay: stabilisation of HLA-A2 on T2 cells, fluorescence relative to PR1
[2] = test system: peptide-pulsed T2 cells, HLA-A2 transfected K562; assay: Elicitation of cyclin E peptide-specific CTL lines and killing of targets; type: cell-based, human; conditions: for donors in which peptide-stimulated CTL lines killed CCNE1144-152 and CCNE2144-152-pulsed T2 cells: PBMCs from 7 HLA-A2 positive normal donors
Description: (§1) Nonameric peptides derived from cyclin E1 and cyclin E2 and predicted to bind to the HLA-A2 allele have similar amino acid sequences, differing only at position 7. Thus, the binding of CCNE1144-152 (cyclin E1 derived) and […] (cyclin E2 derived) was compared to that of PR1 by a peptide-binding assay. […] In 3 of 7 donors, CCNE1144-152-stimulated CTL lines killed both CCNE1144-152 and CCNE2144-152-pulsed T2 cells but not non-peptide-pulsed T2 cells and irrelevant peptide-pulsed T2 cells. In 4 of 7 same donors, CCNE2144-152-stimulated CTL lines killed both CCNE2144-152 and CCNE1144-152-pulsed T2 cells but not non-peptide-pulsed T2 cells and irrelevant peptide-pulsed T2 cells.
Thus, each peptide-specific CTLs can recognize both peptides with HLA-A2, but the immunogenicity of each peptide is different between individuals. Moreover, one of 4 CCNE1144-152-stimulated CTL lines which killed CCNE1144-152-pulsed T2 cell killed HLA-A2 transfected K562 leukemic cell line which is over-expressing cyclin E1 protein, but not non-transfected K562 leukemic cell line. Thus, CCNE1144-152-specific CTL can distinguish leukemic cell lines from normal PBMCs. From the data, it was concluded that cyclin E1/E2 derived peptides are tumor antigens, because 1) cyclin E1/E2 are highly over-expressed in hematological malignancy, 2) cyclin E1/E2 peptides can sufficiently bind to HLA-A2 to stimulate CTL and 3) CCLE1144-152 specific CTL preferentially kills leukemic cell lines HLA-A2 restrictively.

HLA-A2 = HLA-A2 (Homo sapiens, UniProt P04439, D140Y/D185E/D98H/E176V/E277Q/G131W/G231S/I119V/I121R/I166T/I218V/L300P/L318F/N151K/N90K/P208A/P217A/Q86G/Q94H/R138H/R169H/T345S); assay: Peptide-binding assay: HLA-A2 stabilization on T2 cells; conditions: HLA-A2 stabilization on T2 cells relative to PR1
Description: as §1

peptide-loaded T2 cells = assay: Induction of primary CTL responses; cytotoxicity toward peptide-loaded T2 cells
Description: Induction of Primary CTL responses to peptides. These peptides were next used to stimulate T cells specific for peptide-coated targets. PBMC from a normal healthy donor heterozygous for HL-A2.1 were stimulated with peptide-pulsed T2 cells. […] Briefly, T2 cells (which co-express the costimulatory molecule B7.1) were washed 3 times in serum-free RPMI culture media supplemented with penicillin/streptomycin and glutamine (CM) and incubated with peptide at 20 μg/mL for 2 hr in CM. The peptide loaded T2 cells were then irradiated with 7500 cGy, washed once, and suspended with freshly isolated PBMC at a 1:1 ratio in CM supplemented with 10% human serum (HS) (Sigma, St. Louis, Mo.). After 7 days in culture, a second stimulation was performed and the following day, 60 IU/ml of recombinant human interleukin-2 (rhIL2) (Biosource International, Camarillo, Calif.) was added. After 14 days in culture a third stimulation was performed, followed on day 15 by addition of rhIL-2. A fourth stimulation was performed on day 21 followed on day 22 by the addition of rhIL2. After a total of 27 days in culture, the peptide-stimulated T cells were harvested and tested for peptide-specific cytotoxicity toward Calcein AM-labeled T2 cells, leukemia cell lines, and fresh human leukemia cells, as merely exemplary embodiments. […]

[3] = molecular target: HLA-A2.1 (HLA-A*0201) with β2-microglobulin (human); assay: cell-based or functional assay
myeloid leukemia = conditions: human, in vivo
Description: PR1 peptide vaccine can elicit PR1-CTL immunity in patients with myeloid leukemia. […] To test this in refractory leukemia patients, a phase I/II vaccine study was initiated. HLA-A2+ patients with CML (interferon-resistant or relapsed after BMT), AML (smoldering relapse or ≧2nd CR) or MDS (RAEB or RAEBt) with no detectable antibodies to proteinase 3 (no detectable cANCA) were eligible. Patients that relapsed after BMT or those ineligible for BMT were also eligible for study. Pregnant patients, HIV+ patients, and those with known vasculitis were excluded. Patients were required to have immunosuppression (i.e. cyclosporine, steroids) discontinued 4 weeks prior to study entry.
Primary endpoints were (1) toxicity assessment including the induction of autoimmunity resembling Wegener's granulomatosis, the systemic vasculitis associated with cANCA antibodies; and (2) induction of an immune response assessed by cytokine flow cytometry (CFC) of γ-IFN and PR1/HLA-A2 tetramer staining of PBMC before and 3 weeks after the last vaccination. Secondarily, clinical responses were assessed by standard criteria with bone marrow biopsy, cytogenetic studies (standard chromosome banding) and molecular studies (PCR for bcr-abl or other known abnormalities such as t(15;17), inv16, etc.) 3 weeks after the last vaccination. Patients were seen and evaluated in clinic every 3 weeks during the study period. […]

[4] = molecular target: T1, HLA-A2.1 (HLA-A*0201) with β2-microglobulin (human); assay: T2 cell HLA-A2.1 stabilisation (flow cytometry with BB7.2) and I125-β2-microglobulin dissociation from the heterotrimer
T1 construct: In the first assay HLA-A2.1 stood on TAP-deficient T2 cells; In the second assay it was a heterotrimer of HLA-A2.1 heavy chain, peptide and I125-labeled β2-microglobulin in solution

Molecule: CCNE1144-152 (cyclin E1 derived nonameric peptide) (from UniProt P24864 147-155)
- FI CCNE1144-152/FI PR1 [1]: 1.01

Molecule: CCNE2144-152: Nonameric peptide derived from cyclin E2, predicted to bind to the HLA-A2 allele (ILLDWLLEV)
- donors in which peptide-stimulated CTL lines killed CCNE1144-152 and CCNE2144-152-pulsed T2 cells [2]: 4 of 7
- FI peptide/FI PR1 (HLA-A2): 1.189

Molecule: KLLLALAGL [MY2]
- specific lysis of cognate peptide-loaded target cells by CTL line generated against the peptide (peptide-loaded T2 cells): high specific lysis

Molecule: CCNE1144-152: Nonameric peptide derived from cyclin E1, predicted to bind to the HLA-A2 allele (ILLDWLMEV)
- peptide-stimulated CTL lines that killed HLA-A2 transfected K562 but not non-transfected K562 [2]: one of 4
- donors in which peptide-stimulated CTL lines killed CCNE1144-152 and CCNE2144-152-pulsed T2 cells [2]: 3 of 7
- FI peptide/FI PR1 (HLA-A2): 1.008

Molecule: CC[C@H](C)[C@H](NC(=O)[C@H](CCCNC(=N)N)NC(=O)[C@H](CCSC)NC(=O)[C@@H](NC(=O)[C@H](CCC(N)=O)NC(=O)[C@H](CCC(=O)O)NC(=O)[C@H](Cc1ccccc1)NC(=O)[C@H](CC(C)C)NC(=O)[C@@H](N)CCCNC(=N)N)C(C)C)C(=O)O [MY4, RLFEQVMRI]
- cytotoxicity of CTL line generated against the peptide toward MY2-loaded targets (peptide-loaded T2 cells): did not demonstrate any significant cytotoxicity

Molecule: BB7.2, mouse monoclonal antibody against HLA-A2.1
- specific lysis of HLA-A2+ MCF-7 cells by PR1-CTL (calcein AM, 4 hours co-incubation) [3]: 17%

Molecule: VLQELNVTV [PR1, VLQELNVTV]
- dose levels eliminated on the basis of toxicity in Phase I (myeloid leukemia): none of the doses were eliminated on the basis of toxicity

B1: PR1 peptide (VLQELNVTV), HLA-A2.1-restricted nonamer derived from proteinase 3 (peptide)
peptide: VLQELNVTV
- binding result [4]: binds

B2: MY1 peptide (SLWRRPFNV) from myeloperoxidase (peptide)
peptide: SLWRRPFNV
- binding result [4]: binds

B3: MY2 peptide (KLLLALAGL) from myeloperoxidase (peptide)
peptide: KLLLALAGL
- binding result [4]: binds

B4: MY3 peptide (LLSYFKQPV) from myeloperoxidase (peptide)
peptide: LLSYFKQPV
- binding result [4]: binds

B5: MY4 peptide (RLFEQVMRI) from myeloperoxidase (peptide)
peptide: RLFEQVMRI
- binding result [4]: binds

B6: MY5 peptide (LIQPFMFRL) from myeloperoxidase (peptide)
peptide: LIQPFMFRL
- binding result [4]: binds
